Biological target: Cys151 (UniProt position 151, SMGEKCVLHVM)
Experiment: chemical modification (fluorescence detection)
Conditions: 25 °C; 15 mM acetate/15 mM MES/30 mM Tris; Reduced (DTT-treated, desalted) free BTB domain, folded, no ligand

Kelch-like ECH-associated protein 1 (KEAP1), BTB domain (Homo sapiens; S172A)
pKa: 6.90 ± 0.05
